According to patent US20240398767A1, “INHIBITORS OF THE MTDH-SND1 PROTEIN COMPLEX FOR CANCER THERAPY” (The Trustees of Princeton University, priority 2021, published 2024):

T1: MTDH-SND1 interaction (Homo sapiens, UniProt Q7KZF4)
T1 construct: endogenous in cells; host or cells: SCP28 cells (lysate)
T1 sequence (Q7KZF4 2-910 limits assumed): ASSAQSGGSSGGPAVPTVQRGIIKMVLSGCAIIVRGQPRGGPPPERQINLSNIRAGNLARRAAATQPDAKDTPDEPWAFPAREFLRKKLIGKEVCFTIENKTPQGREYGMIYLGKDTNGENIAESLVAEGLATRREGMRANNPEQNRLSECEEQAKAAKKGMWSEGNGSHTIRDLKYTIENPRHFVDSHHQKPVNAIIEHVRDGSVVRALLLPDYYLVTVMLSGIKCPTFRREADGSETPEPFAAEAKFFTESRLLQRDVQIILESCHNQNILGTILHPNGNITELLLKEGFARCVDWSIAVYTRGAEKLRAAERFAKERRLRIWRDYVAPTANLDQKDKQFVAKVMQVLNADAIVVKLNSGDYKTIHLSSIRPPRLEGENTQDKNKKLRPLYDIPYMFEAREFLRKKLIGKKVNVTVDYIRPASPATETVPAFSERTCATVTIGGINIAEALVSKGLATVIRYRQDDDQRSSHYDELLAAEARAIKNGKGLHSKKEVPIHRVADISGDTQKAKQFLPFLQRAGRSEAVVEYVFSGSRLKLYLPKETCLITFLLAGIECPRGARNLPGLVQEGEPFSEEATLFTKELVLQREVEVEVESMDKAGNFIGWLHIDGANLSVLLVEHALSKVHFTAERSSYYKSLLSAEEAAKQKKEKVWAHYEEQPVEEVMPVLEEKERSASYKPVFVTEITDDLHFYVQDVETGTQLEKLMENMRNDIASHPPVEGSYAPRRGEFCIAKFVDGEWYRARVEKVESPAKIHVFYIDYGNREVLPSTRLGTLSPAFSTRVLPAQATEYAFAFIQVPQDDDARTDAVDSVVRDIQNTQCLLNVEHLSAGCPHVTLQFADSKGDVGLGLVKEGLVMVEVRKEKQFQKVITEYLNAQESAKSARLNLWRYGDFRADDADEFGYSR

T2: SND1 (endogenous, SCP28 breast cancer cell lysate) (human, UniProt Q7KZF4 2-910)
T2 construct: Detected by Western blot after MTDH immunoprecipitation; also called Staphylococcal nuclease domain-containing 1
T2 sequence (looked up): T1 sequence (Q7KZF4 2-910 limits assumed)

T3: SND1-NLuc (human)
T3 construct: Expressed in HEK293T cells and used as cell lysate; also called Myc-SND1-NLuc; split-luc component
T3 chain: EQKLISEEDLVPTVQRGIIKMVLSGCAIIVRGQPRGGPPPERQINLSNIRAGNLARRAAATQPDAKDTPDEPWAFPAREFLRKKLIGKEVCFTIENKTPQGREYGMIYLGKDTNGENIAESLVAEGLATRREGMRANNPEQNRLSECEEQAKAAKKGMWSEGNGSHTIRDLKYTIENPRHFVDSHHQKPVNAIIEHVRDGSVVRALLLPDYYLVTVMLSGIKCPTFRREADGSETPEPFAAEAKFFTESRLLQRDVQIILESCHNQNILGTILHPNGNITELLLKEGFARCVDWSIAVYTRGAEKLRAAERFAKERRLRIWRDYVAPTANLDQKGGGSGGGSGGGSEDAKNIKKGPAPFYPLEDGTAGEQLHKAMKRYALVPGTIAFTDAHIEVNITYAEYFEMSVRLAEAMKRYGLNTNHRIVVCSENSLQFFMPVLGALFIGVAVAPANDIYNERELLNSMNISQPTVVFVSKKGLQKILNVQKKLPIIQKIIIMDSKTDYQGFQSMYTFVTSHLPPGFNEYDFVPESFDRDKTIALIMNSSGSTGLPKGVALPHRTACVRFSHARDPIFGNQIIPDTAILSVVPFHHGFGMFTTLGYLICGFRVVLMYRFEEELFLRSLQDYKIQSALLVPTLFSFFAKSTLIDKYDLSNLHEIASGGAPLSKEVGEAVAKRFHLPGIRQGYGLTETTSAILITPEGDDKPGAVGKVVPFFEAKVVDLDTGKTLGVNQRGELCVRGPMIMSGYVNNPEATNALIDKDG

T4: SND1-NLuc
T4 chain: T3 chain

B1: wild type MTDH (MTDH-WT) minimal peptide (peptide)
peptide: PNSDWNAPAEEWGNW
notes: also called MTDH-WT peptide; Pep-WT

Assays:
MTDH-SND1 interaction [1] = molecular target: T5, MTDH-SND1 interaction (Homo sapiens, UniProt Q7KZF4); experiment: Cell-free split-luciferase (Split-luc) assay, SND1-NLuc + CLuc-MTDH; format: biochemical; details: 50 μM peptide
T5 construct: made in house; host or cells: HEK293T cells, transient transfection of pcDNA3.1 plasmids; crude cleared lysates, each fusion expressed separately and the lysates pre-mixed
Source text: To generate a luciferase-based screening system, firefly luciferase was split into N- and C-terminals according to previous studies^21-23. Both N- and C-terminal domains alone have almost undetectable luciferase activity (FIG. 10A). Next, the two fragments were fused to SND1 and MTDH interaction domains respectively to generate SND1-NLuc and CLuc-MTDH (Split-luc) (FIG. 10A, left, and Table 3). […] However, when SND1-NLuc+CLuc-MTDH were co-expressed, N- and C-terminal domains of the luciferase fragments were brought close to each other due to the interaction between SND1 and MTDH, and substantial luciferase activity was reconstituted (FIG. 3A, left and FIG. 10A).
(§1) Luciferase-based screening. Seed HEK293T cells on 3×15 cm dish at 18-24 hr before transfection with 7-8×10^6 cells per dish targeting 70-80% confluence when start transfection. 20 μg of pCDNA3.1-SND1-NLuc, pCDNA3.1-CLuc-MTDH, or 2 μg of pCDNA3.1-NLuc-CLuc plasmids that described above were transfected to each dish. 72 hr after transfection the cells were lysed with 5 ml of luciferase lysis buffer (2 mM EDTA, 20 mM DTT, 10% glycerol, 1% Triton X-100, 25 mM Tris base, adjusted to pH7.8 with H3PO4) at 4° C. for 20 min. The protein lysates were centrifuged at 13,000 rpm for 10 min, and the supernatant were collected.
For small chemical compound screening, white, flat-bottom, solid 384-well plates were used. Compounds were added into each well as 0.1 μl of 10 mM DMSO solution (or same amount of DMSO, serve as control). The first and last columns were free, and MTDH wild type (PNSDWNAPAEEWGNW) or mutant (PNSDANAPAEEAGNW) peptides were added as positive and negative controls right before screening. Same amount of MTDH-CLuc and SND1-NLuc were pre-mixed at 4° C. for 30 min to generate split-luc. 5 μl of split- or linked-luc was added into each well. 15 μl of luciferase assay buffer (25 mM Glycylglycine pH 7.8, 15 mM K3PO4 pH 7.8, 15 mM MgSO4, 4 mM EGTA, 2 mM ATP added just before use, 10 mM DTT added just before use and 1 mM D-Luciferin added just before use) was then added into each well to get a 20 μl reaction system with 50 μM of compounds (peptides) in each well. The plates were incubated at 4° C. for 1 hr and luciferase activity at each well was measured.
The inhibitory efficiency of each compound was calculated as following: (signal at DMSO well−signal at compound well)/signal at DMSO well. MTDH wild type or mutant peptide in each plate was served as positive and negative controls to monitor the data quality of each plate.

[2] = molecular target: T6, Linked-luc (NLuc and CLuc of firefly luciferase fused together) (Photinus pyralis, UniProt P08659, INS416[…]); experiment: Linked-luciferase (Linked-luc) counter screen, cell free; format: biochemical; details: 50 μM peptide
T6 construct: made in house; host or cells: HEK293T cells, transient transfection of pcDNA3.1-NLuc-CLuc; crude cleared lysate
Source text: The interaction between SND1-NLuc and CLuc-MTDH was also validated with co-immunoprecipitation (Co-IP) experiments (FIG. 10B). In the presence of the compounds (inhibitors) that block MTDH-SND1 interaction, the reconstitution of luciferase activity was expected to be reduced (FIG. 3A). Meanwhile, considering the possibility that compounds capable of directly inhibiting the enzymatic activity of luciferase could also result in lower luciferase signal without any blocking effect on MTDH-SND1 interaction, Linked-luc that directly fuse NLuc and CLuc together was generated to be used in counter screening (FIG. 3A, right, and Table 3).
as §1, with “The protein lysates were centrifuged at 13,000 rpm for 10 min, and the supernatant were collected.” left out
For small chemical compound screening, white, flat-bottom, solid 384-well plates were used. […] The plates were incubated at 4° C. for 1 hr and luciferase activity at each well was measured.

MTDH-SND1 interaction [3] = molecular target: T1, MTDH-SND1 interaction; experiment: Co-immunoprecipitation (Co-IP) in SCP28 lysates with anti-MTDH antibody, Western blot for SND1; format: binding; details: 500 μM, SCP28 lysate
Protocol: FIG. 3F, SCP28 cells grown confluent in each 10-cm dish were lysed with 1 ml IP lysis buffer. 500 μM of the compounds were added into each 1 ml of the samples and IP lysis buffer with 2 μg of anti-MTDH antibody. Western blot was then performed to detect SND1 that binds to MTDH.
(§2) FIG. 10E, Schematic diagram of Co-IP based confirmation of MTDH-SND1 inhibitory compounds (left). SCP28 cells were lysed for IP assay.2 μg of MTDH antibody together with 500 μM of MTDH wild type (Pep-WT) or mutant (Pep-MT) peptides were added into each 1 ml of samples. Red star indicates wild type MTDH peptide competing off SND1 that binds to MTDH.
(§3) Co-immunoprecipitation assay (Co-IP), which is a commonly used standard test to determine protein-protein interaction, was next employed to validate the candidates. Lysates of breast cancer cell line SCP28, a single cell-derived subline from the MDA-MB-231 TNBC cell line^25, was immunoprecipitated with anti-MTDH antibody alone or together with inhibitors (FIG. 3F and FIG. 10E). The samples were then incubated with Protein-A/G beads to pull down MTDH, followed by Western blot analysis to detect SND1. […] Using multiple screening and validation platforms, two classes of compounds, C26s and C32s, were obtained that inhibit MTDH-SND1 interaction.
Immunoprecipitation (IP) and western blotting (WB) analysis. For IP experiment, samples were prepared as previously described^32. 100 μl of the supernatant was transferred to a new tube as input, and the rest was incubated with 2 μg of IgG, anti-Myc (Santa Cruz, SC-40), or anti-MTDH (ThermoFisher, 40-6500) (as indicated in each experiment) overnight at 4° C. (small chemical compounds may be added at this step as indicated in each experiment). The rest standard IP procedures were performed as previously noted^32. […]

[4] = molecular target: T2, SND1 (endogenous, SCP28 breast cancer …); experiment: Co-IP competition, SCP28 lysate, anti-MTDH antibody, Western blot for SND1
Protocol: as §2
as §3, with “line²⁵,” for “line^25,”, “SND1. In such co-TP experiment, MTDH-WT but not MTDH-MT peptide blocks MTDH-SND1 interaction (FIG. 10E).” for “SND1.”

SND1-NLuc [5] = molecular target: T3, SND1-NLuc; experiment: split-luciferase competition assay, 50 µM peptide, competitor of CLuc-MTDH
Protocol: as §1, with “7-8×10⁶” for “7-8×10^6”, “H₃PO₄)” for “H3PO4)”
For small chemical compound screening, white, flat-bottom, solid 384-well plates were used. Compounds were added into each well as 0.1 μl of 10 mM DMSO solution (or same amount of DMSO, serve as control). The first and last columns were free, and MTDH wild type ([…]) or mutant ([…]) peptides were added as positive and negative controls right before screening. Same amount of MTDH-CLuc and SND1-NLuc were pre-mixed at 4° C. for 30 min to generate split-luc. 5 μl of split- or linked-luc was added into each well. […] The plates were incubated at 4° C. for 1 hr and luciferase activity at each well was measured.

SND1-NLuc [6] = molecular target: T4, SND1-NLuc; experiment: split-luciferase assay (inhibition of SND1-NLuc/CLuc-MTDH interaction)

T6 sequence (P08659 with tags, fused parts or gaps INS416[withheld]): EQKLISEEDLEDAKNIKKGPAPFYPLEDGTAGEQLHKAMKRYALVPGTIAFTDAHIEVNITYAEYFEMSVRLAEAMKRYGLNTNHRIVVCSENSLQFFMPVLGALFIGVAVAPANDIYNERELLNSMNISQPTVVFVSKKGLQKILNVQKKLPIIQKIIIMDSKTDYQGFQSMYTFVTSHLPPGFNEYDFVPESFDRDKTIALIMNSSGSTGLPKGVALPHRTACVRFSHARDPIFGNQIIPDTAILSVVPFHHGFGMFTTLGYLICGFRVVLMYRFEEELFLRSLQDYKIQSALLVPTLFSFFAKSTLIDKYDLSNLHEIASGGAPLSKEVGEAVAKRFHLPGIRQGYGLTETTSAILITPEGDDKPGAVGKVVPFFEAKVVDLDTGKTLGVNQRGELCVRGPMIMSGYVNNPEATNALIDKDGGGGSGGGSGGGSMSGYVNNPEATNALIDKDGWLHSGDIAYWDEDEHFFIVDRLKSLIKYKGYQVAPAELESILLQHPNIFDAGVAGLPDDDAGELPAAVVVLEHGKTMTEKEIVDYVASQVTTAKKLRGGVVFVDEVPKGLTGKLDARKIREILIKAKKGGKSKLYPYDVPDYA

Row | Molecule | split-luc activity (MTDH-SND1 interaction [1]) | linked-luc activity [2] | MTDH-SND1 interaction (SND1 that binds to MTDH, Co-IP) (MTDH-SND1 interaction [3]) | binding result [4] | binding result (SND1-NLuc [5]) | IC50 (SND1-NLuc [6])
1 | PNSDWNAPAEEWGNW [MTDH-WT, reference compound] | significantly inhibited split-luc activity | not affected | blocks MTDH-SND1 interaction | – | – | –
2 | B1 | – | – | – | binds | binds | 1.2 µM
